The record followed here is publication PMC9331583.

In the assay the target is apolipoprotein E (human (endogenous in Huh7.5 and HMC3)) (UniProt P02649).
UniProt P02649, sequence (P02649 19-317): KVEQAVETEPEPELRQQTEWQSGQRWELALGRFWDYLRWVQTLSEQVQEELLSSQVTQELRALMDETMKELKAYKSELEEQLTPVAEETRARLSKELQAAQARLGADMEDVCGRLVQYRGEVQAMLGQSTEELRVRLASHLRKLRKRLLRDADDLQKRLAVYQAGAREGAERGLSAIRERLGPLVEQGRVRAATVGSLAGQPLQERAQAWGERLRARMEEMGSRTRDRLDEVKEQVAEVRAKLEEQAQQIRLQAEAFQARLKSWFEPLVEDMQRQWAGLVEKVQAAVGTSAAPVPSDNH

As for “Zika envelope glycoprotein (natural protein)”, the decrease in infection of Huh7.5 cells (percent of cells positive for ZIKV envelope by FACS, relative to isotype Abs) by ZIKV particles pre-incubated with goat anti-ApoE Abs at 1.5 and 10 μg/mL is 60%.
